Test results from patent publication US20240294611A1.

Key:
[1] = molecular target: SARS-CoV-2 D614G spike without stabilizing modifications (on cells or pseudovirus) (SARS-CoV-2) (UniProt P0DTC2); assay: cell-based or functional assay
[2] = molecular target: SARS-CoV-2 B.1.1.7 (variant Alpha) spike on pseudovirus (SARS-CoV-2) (UniProt P0DTC2); assay: cell-based or functional assay

Q: “isotype control antibody with irrelevant binding” was tested. Which Pseudovirus IC50 [1] did it give?
A: > 5 µM

Q: What about the Pseudovirus IC50 [2] of the same substance?
A: > 5 µM
